Source: publication PMC4884500 (DNA repair, 2016)

Experiments:
[1] = biological target: Full-length MmRAD51D (yeast two-hybrid fusion) (mouse) (UniProt O55230); experiment: two-hybrid
[2] = biological target: T1, Full-length MmRAD51D (yeast two-hybrid fusion) (mouse, UniProt O55230 1-329); experiment: two-hybrid
T1 sequence (looked up): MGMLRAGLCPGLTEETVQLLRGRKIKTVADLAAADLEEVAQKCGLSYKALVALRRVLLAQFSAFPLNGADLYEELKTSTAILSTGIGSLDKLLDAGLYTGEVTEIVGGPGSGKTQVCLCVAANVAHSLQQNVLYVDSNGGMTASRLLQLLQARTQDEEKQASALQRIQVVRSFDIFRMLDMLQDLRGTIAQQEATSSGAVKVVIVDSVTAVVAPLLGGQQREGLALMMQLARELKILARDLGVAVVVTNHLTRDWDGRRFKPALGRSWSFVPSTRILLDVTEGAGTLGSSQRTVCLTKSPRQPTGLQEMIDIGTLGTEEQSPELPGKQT

Molecule	fold decrease in the level of interaction against full-length RNF138 [1]	β-galactosidase level relative to the DBD-RAD51D:AD-RAD51C positive control [2]
MmRnf138-Δ7 (RNF138 splice variant with a deletion of exon 7, yeast two-hybrid fusion) (natural protein)	3 fold	
MmRnf138-Δ5 (RNF138 splice variant with a deletion of exon 5, yeast two-hybrid fusion) (natural protein)	8 fold	
RNF138 (yeast two-hybrid fusion) (natural protein, mouse, UniProt Q9CQE0-1 1-245, looked up) MSEELSAATSYTEDDFYCPVCQEVLKTPVRTAACQHVFCRKCFLTAMRESGIHCPLCRGSVTRRERACPERALDLENIMRRFSGSCRCCSKKIKFYRMRHHYKSCKKYQDEYGVSSVIPNFKISQDSVRSSNRSETSASDNTETYQEDTSSSGHPTFKCPLCQESNFTRQRLLDHCNSNHLFQIVPVTCPICVSLPWGDPSQITRNFVSHLNQRHQFDYGEFVNLQLDEETQYQTAVEESFQVNM		79%
